The results in this text go back to PMC5435347.

The target of the assay is YFP-MKT1 (Trypanosoma brucei) (UniProt Q587E3). Put plainly: co-IP; extracts of bloodstream-form trypanosomes immunoprecipitated with anti-GFP (GBP beads) for YFP-MKT1, Western blot for V5 or myc; 100-150 mM NaCl, 2 h at 4°C; with or without RNase; control cells without YFP-MKT1. In general terms: A western blot detects proteins with antibodies after separation by electrophoresis.
Chain of UniProt Q587E3 (Q587E3 whole entry): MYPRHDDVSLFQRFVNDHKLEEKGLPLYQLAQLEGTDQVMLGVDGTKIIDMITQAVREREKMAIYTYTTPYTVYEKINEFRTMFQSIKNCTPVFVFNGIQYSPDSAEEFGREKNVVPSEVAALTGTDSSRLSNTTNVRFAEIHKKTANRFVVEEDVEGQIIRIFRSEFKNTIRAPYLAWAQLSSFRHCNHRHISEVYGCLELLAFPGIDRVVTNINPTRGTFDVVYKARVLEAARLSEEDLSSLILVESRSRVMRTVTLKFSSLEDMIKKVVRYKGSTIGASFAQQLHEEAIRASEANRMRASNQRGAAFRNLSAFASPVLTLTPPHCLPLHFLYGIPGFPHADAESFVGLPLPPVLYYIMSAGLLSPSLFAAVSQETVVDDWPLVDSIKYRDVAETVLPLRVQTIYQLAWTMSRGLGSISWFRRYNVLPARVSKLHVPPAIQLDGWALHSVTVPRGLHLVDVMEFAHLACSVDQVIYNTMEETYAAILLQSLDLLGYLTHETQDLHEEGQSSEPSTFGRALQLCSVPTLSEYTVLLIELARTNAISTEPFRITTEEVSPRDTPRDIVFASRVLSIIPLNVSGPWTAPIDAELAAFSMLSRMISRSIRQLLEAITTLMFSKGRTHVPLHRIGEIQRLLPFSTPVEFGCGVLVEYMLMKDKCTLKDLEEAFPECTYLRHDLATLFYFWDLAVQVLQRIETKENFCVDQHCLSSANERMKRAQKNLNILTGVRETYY

The substance V5-ZC3H32 (natural protein) came in with a proportion pulled down of under 1%. The result for ZC3H32-myc (natural protein) reads under 1%.
